Measured values reported in patent publication US20160153020A1 (GLYCOTREK, published 2016).

Target: T1, DC-SIGN (human lectin receptor) expressed on a recombinant HEK cell line (human, UniProt Q9NNX6 1-404)
T1 construct: whole, on cells; The construct in the HEK cell line is not described
T1 sequence (looked up): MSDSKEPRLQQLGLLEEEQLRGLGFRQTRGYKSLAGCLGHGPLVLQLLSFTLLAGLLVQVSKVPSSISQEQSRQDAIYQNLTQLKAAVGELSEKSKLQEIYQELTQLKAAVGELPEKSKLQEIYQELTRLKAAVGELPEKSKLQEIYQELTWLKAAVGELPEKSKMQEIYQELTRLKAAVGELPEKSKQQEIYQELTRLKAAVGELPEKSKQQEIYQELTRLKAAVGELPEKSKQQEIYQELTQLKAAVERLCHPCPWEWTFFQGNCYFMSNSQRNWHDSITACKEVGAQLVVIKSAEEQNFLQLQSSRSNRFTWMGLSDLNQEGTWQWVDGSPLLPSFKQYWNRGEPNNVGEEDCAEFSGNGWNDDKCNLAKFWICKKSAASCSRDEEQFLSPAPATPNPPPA
Experiment: binding to recombinant HEK cells expressing DC-SIGN (method not described)

B1: infliximab produced in CHO cell lines (antibody, V domains shown)
VH: EVKLEESGGGLVQPGGSMKLSCVASGFIFSNHWMNWVRQSPEKGLEWVAEIRSKSINSATHYAESVKGRFTISRDDSKSAVYLQMTDLRTEDTGVYYCSRNYYGSTYDYWGQGTTLTVSA
VL: DILLTQSPAILSVSPGERVSFSCRASQFVGSSIHWYQQRTNGSPRLLIKYASESMSGIPSRFSGSGSGTDFTLSINTVESEDIADYYCQQSHSWPFTFGSGTNLEVKR
modifications: single N-glycosylation site at position Asn297 ; chain 1 pos 300: Asn297 (EU) carries the single N-glycan; the glycoform depends on the CHO line (Inf or Inf-Sial)
B1: no binding.
